Drawing on the supplement of paper PMC10567573, this text covers protein stability index for 97 variants.

The labels stand for the following.
B1: MGC16075 (parent)
chain: AGSRQALSFEVPPCNYDPEKWIQ
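Note: lentivirally expressed fusions sorted by FACS into six bins by GFP to DsRed ratio, PSI derived from sequencing read proportions per bin multiplied by bin number.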

The variants in the series derive from B1. Kind of series: protein stability index of a GFP-peptide fusion (GPS, HEK-293T) (PSI 1-6); higher = more stable. The conditions noted are these: c terminus: native.
As for AGIRQALSFEVPPCNYDPEKWIQ [S3I], the protein stability index was found to be 1.99. Next, AGNRQALSFEVPPCNYDPEKWIQ [S3N]: 1.59; AGFRQALSFEVPPCNYDPEKWIQ [S3F]: 4.6; AGSRQALSFEVPPCEYDPEKWIQ [N15E]: 1.58. In the case of AGSRQALSFEVPPCPYDPEKWIQ [N15P], the protein stability index came to 2.68. As for AGSRQALSFEVPPCQYDPEKWIQ [N15Q], the protein stability index was determined as 3.17.

In the case of AGSRQALSFEVPPCSYDPEKWIQ [N15S], the protein stability index worked out at 1.35.

Regarding AGSRQALSFEVPPCIYDPEKWIQ [N15I], the protein stability index amounted to 2.06. Next, AGSRQALSFEVPPCGYDPEKWIQ [N15G]: 2.03; AGSRQALSFEVPPCAYDPEKWIQ [N15A]: 1.71; AGSRQALSFEVPPCDYDPEKWIQ [N15D]: 1.78. As to AGSRQALSKEVPPCNYDPEKWIQ [F9K], the protein stability index was 3.19.

As to AGSRQALSTEVPPCNYDPEKWIQ [F9T], the protein stability index turned out to be 2.79. For AGSRQALSNEVPPCNYDPEKWIQ [F9N], the protein stability index is 3.75. With AGSRQALSAEVPPCNYDPEKWIQ [F9A], the protein stability index is 2.63. Next, AGSRQALSLEVPPCNYDPEKWIQ [F9L]: 2.48; AGSRQALSIEVPPCNYDPEKWIQ [F9I]: 2.07; AGSRQALSFEVPPCNYDTEKWIQ [P18T]: 1.82. For the variant AGSRQALSFEVPPCNYDDEKWIQ [P18D], the protein stability index stood at 1.93. Then AGSRQALSFEVPPCNYDHEKWIQ [P18H], with 1.84. Then AGSRQALSFEVPPCNYDMEKWIQ [P18M], with 1.91.

As for AGSRQALSFEVPPCNYDSEKWIQ [P18S], the protein stability index worked out at 1.78.

Take AGSRQALSFEVPPCNYDNEKWIQ [P18N]: the protein stability index was 2.15. Next, AGSRQALSFEVPPCNYDIEKWIQ [P18I]: 1.92. Then AGSRQALSFEVPPCNYDYEKWIQ [P18Y], with 1.87; and AGSRQALSFEVPPCNYDFEKWIQ [P18F], with 1.6.

Consider AGSRQALSFEVPPCNYDPEKHIQ [W21H], for which the protein stability index came to 2.32. Then AGSRQALSFEVPPCNYDPEKFIQ [W21F], with 2.89; and AGSRQALSFEVPPCNYDPEKMIQ [W21M], with 3.23; and AGSRQALSFEVPPCNYDPEKVIQ [W21V], with 2.88. Next, AGSRQALSFEVPPCNYDPEKRIQ [W21R]: 2.16; AGSRQALSFEVPPCNYDPEKDIQ [W21D]: 3.28; AGSRQALSFEVPPCNYDPEKLIQ [W21L]: 2.17. With AGSRQALSFEVPPCNYDPEKWLQ [I22L], the protein stability index is 3.92. Next, AGSRQALSFEVPPCNYDPEKWHQ [I22H]: 4.62.

As to AGSRQALSFEVPPCNYDPEKWMQ [I22M], the protein stability index is 4.14. Then AGSRQALSFEVPPCNYDPEKWKQ [I22K], with 4.72.

For the variant AGSRQALSFEVPPCNYDPEKWDQ [I22D], the protein stability index was determined as 4.97.

With AGSRQALSFEVPPCNYDPEKWFQ [I22F], the protein stability index was 4.43. For AGSRQALSFEVPPCNYDPEKWCQ [I22C], the protein stability index came out at 4.56.

AGSRQALSFEVPPCNYDPEKWWQ [I22W]: the protein stability index amounted to 3.22. Then AGSRQALSFEVPPCNYDPEKWIV [Q23V], with 4.81.

AGSRQALSFEVPPCNYDPEKWIE [Q23E]: the protein stability index is 1.97. Then AGSRQALSFEVPPCNYDPEKWIM [Q23M], with 1.82; and AGSRQALSFEVPPCNYDPEKWIN [Q23N], with 2.83; and AGSRQALSFEVPPCNYDPEKWIK [Q23K], with 1.91. Then AGSRQALSFEVPPCNYDPEKWIP [Q23P], with 4.37; and AGSRQALSFEVPPCNYDPEKWIG [Q23G], with 3.04; and AGSRQALSFEVPPCNYDPEKWIH [Q23H], with 2.55. Turning to AGSRQAYSFEVPPCNYDPEKWIQ [L7Y], the protein stability index was 1.76. Then AGSRQAASFEVPPCNYDPEKWIQ [L7A], with 2.09. Then AGSRQAMSFEVPPCNYDPEKWIQ [L7M], with 1.86; and AGSRQAKSFEVPPCNYDPEKWIQ [L7K], with 1.82.

For AGSRQAHSFEVPPCNYDPEKWIQ [L7H], the protein stability index is 2.33. Then AGSRQAQSFEVPPCNYDPEKWIQ [L7Q], with 2.57; and AGSRQAPSFEVPPCNYDPEKWIQ [L7P], with 1.26. Consider AGSRQAVSFEVPPCNYDPEKWIQ [L7V], for which the protein stability index amounted to 1.78. Next, AGSRQAISFEVPPCNYDPEKWIQ [L7I]: 2.07; AGSRQATSFEVPPCNYDPEKWIQ [L7T]: 2.42; AGSRQASSFEVPPCNYDPEKWIQ [L7S]: 2.11. Next, AGSRQAGSFEVPPCNYDPEKWIQ [L7G]: 2.06; AGSRVALSFEVPPCNYDPEKWIQ [Q5V]: 2.35. Then AGSRHALSFEVPPCNYDPEKWIQ [Q5H], with 1.82; and AGSRDALSFEVPPCNYDPEKWIQ [Q5D], with 1.52. With AGSRRALSFEVPPCNYDPEKWIQ [Q5R], the protein stability index is 1.84. Then AGSRKALSFEVPPCNYDPEKWIQ [Q5K], with 1.3; and AGSRQALSFEVPPCNYDPEFWIQ [K20F], with 3.49. Regarding AGSRQALSFEVPPCNYDPEAWIQ [K20A], the protein stability index worked out at 3.93. Then AGSRQALSFEVPPCNYDPEGWIQ [K20G], with 3.9. Next, AGSRQALSFEVPPCNYDPEMWIQ [K20M]: 2.69; AGSRQALSFEVPPCNYDPEWWIQ [K20W]: 3.58. Next, AGSRQALSFEVPPCNYDPEQWIQ [K20Q]: 4.32; AGSRQALSFEVMPCNYDPEKWIQ [P12M]: 2.33; AGSRQALSFEVSPCNYDPEKWIQ [P12S]: 1.71. Regarding AGSRQALSFEVFPCNYDPEKWIQ [P12F], the protein stability index was 2.92. Then AGSRQALSFEVQPCNYDPEKWIQ [P12Q], with 2; and AGSRQALSFEVLPCNYDPEKWIQ [P12L], with 4.23. Next, AGSRQALSFEVWPCNYDPEKWIQ [P12W]: 2.69; AGSRQALSFEVIPCNYDPEKWIQ [P12I]: 1.17. Then ARSRQALSFEVPPCNYDPEKWIQ [G2R], with 2.58; and ASSRQALSFEVPPCNYDPEKWIQ [G2S], with 1.75; and AISRQALSFEVPPCNYDPEKWIQ [G2I], with 2.37. On to AASRQALSFEVPPCNYDPEKWIQ [G2A], for which the protein stability index is 1.77. Then AVSRQALSFEVPPCNYDPEKWIQ [G2V], with 1.97. Then AESRQALSFEVPPCNYDPEKWIQ [G2E], with 1.48; and APSRQALSFEVPPCNYDPEKWIQ [G2P], with 1.94. As for ANSRQALSFEVPPCNYDPEKWIQ [G2N], the protein stability index came out at 2.37.

With AYSRQALSFEVPPCNYDPEKWIQ [G2Y], the protein stability index was 2.51. Then AGSSQALSFEVPPCNYDPEKWIQ [R4S], with 2.21; and AGSNQALSFEVPPCNYDPEKWIQ [R4N], with 1.98. Next, AGSCQALSFEVPPCNYDPEKWIQ [R4C]: 1.57; AGSFQALSFEVPPCNYDPEKWIQ [R4F]: 2.41; AGSEQALSFEVPPCNYDPEKWIQ [R4E]: 1.83. Then AGSPQALSFEVPPCNYDPEKWIQ [R4P], with 2.77. Turning to AGSYQALSFEVPPCNYDPEKWIQ [R4Y], the protein stability index worked out at 1.22.

For the variant AGSGQALSFEVPPCNYDPEKWIQ [R4G], the protein stability index came out at 1.39. Then AGSIQALSFEVPPCNYDPEKWIQ [R4I], with 2.7.
